Assays:
[1] = target: leucine-rich repeat kinase 2 (LRRK2) (UniProt Q5S007); assay: cryo-EM 2D classification; Rab29 T71A/S72A–LRRK2 complex; 2D classification performed with cross-correlation (fig. S9E); details: remark: other sources report otherwise
[2] = target: leucine-rich repeat kinase 2 (LRRK2) (UniProt Q5S007); assay: cryo-EM structure; complex reconstituted by mixing LRRK2, Rab29EM, GTP analog (GppNHp), ATP and Mg2+; three oligomeric assemblies (monomer, dimer, tetramer); C2 symmetry imposed for dimer and tetramer; details: remark: other sources report otherwise
[3] = target: T1, leucine-rich repeat kinase 2 (LRRK2) (UniProt Q5S007 1-2527); assay: as above; details: both partners purified
T1 construct: leucine-rich repeat kinase 2 (LRRK2), wild type; domains ARM, ANK, LRR, ROC, COR, KIN, WD40; Near full-length LRRK2^peri could be modelled in the tetramer; Seen as monomer, dimer and tetramer in complex with Rab29; Also stands for the WT LRRK2 transfected into HEK293 cells in the functional rows; also called WT LRRK2; LRRK2^peri
T1 sequence (Q5S007 whole entry): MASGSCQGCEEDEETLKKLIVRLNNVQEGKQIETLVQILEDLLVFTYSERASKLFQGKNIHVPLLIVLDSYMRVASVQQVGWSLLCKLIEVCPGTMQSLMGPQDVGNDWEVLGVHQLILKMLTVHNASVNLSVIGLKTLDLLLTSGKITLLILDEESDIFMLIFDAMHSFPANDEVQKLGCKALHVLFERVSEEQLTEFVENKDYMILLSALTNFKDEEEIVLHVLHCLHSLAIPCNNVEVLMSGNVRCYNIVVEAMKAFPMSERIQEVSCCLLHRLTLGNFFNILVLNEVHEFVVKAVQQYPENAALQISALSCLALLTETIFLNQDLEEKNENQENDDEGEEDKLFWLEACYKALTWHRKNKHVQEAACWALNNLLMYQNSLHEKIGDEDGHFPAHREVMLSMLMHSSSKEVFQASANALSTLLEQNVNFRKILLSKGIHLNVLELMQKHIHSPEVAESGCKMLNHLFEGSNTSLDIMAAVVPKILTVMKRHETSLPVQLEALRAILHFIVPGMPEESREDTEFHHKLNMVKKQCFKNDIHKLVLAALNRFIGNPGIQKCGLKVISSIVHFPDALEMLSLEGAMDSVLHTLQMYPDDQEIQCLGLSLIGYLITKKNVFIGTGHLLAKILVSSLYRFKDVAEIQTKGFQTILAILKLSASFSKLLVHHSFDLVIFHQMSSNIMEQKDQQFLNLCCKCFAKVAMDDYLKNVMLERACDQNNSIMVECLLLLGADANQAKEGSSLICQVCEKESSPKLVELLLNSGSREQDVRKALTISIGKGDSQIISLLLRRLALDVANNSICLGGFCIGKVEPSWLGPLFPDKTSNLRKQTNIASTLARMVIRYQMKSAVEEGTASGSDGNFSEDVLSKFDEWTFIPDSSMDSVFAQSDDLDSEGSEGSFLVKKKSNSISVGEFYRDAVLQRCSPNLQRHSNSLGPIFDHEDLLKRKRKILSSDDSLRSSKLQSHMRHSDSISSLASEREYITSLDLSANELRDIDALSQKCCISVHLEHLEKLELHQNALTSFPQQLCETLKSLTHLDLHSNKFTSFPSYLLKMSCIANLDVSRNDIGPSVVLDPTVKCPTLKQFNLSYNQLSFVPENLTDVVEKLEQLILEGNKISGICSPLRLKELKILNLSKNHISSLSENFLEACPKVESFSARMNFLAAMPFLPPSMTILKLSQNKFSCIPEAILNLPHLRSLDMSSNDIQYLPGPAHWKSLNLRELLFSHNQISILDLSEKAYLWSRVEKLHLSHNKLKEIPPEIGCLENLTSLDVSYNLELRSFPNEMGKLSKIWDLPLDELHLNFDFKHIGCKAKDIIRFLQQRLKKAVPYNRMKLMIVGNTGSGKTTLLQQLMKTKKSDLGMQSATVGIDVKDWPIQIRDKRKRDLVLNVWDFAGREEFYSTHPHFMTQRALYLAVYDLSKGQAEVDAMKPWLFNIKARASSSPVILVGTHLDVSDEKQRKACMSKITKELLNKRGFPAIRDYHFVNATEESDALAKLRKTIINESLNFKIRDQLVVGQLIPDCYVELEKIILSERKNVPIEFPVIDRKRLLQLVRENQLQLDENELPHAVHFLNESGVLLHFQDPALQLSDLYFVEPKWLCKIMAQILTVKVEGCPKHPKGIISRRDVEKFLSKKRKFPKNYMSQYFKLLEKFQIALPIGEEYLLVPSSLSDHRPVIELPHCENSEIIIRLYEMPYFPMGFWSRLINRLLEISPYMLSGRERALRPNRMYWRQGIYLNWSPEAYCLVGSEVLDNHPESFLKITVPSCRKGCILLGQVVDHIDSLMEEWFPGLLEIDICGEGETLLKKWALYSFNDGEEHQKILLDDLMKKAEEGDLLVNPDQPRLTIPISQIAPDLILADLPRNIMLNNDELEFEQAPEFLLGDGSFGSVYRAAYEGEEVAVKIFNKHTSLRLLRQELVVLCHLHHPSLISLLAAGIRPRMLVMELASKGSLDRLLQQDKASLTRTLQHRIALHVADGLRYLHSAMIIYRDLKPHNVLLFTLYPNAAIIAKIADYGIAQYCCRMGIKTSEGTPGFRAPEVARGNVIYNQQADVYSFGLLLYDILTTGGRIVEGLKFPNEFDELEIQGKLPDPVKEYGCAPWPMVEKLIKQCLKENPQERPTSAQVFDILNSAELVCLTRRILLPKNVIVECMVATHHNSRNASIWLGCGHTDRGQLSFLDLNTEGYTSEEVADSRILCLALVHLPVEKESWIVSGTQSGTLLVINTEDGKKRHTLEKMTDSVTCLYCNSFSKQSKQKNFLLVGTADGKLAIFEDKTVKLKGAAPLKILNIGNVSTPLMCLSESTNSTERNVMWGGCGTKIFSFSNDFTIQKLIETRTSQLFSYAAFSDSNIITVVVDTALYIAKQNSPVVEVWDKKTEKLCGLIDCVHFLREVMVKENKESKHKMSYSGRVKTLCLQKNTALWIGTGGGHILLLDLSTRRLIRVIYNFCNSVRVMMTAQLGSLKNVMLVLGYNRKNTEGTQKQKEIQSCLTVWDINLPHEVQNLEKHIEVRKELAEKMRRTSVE

| stoichiometry N [1] | stoichiometry N [2] | stoichiometry N [3] | Molecule |
| --- | --- | --- | --- |
| 4 | 4 |  | leucine-rich repeat kinase 2 (LRRK2), Q5S007 1-2527 |
|  |  | 1 | Rab29EM (Rab29 Q67L, T71A, S72A) (natural protein, Rab29, a Rab GTPase encoded in the PARK16 locus, with three point mutations; constructs are in the supplementary Materials and Methods; also called Rab29^peri) MGSRDHLFKVLVVGDAAVGKTSLVQRYSQDSFSKHYKSTVGVDFALKVLQWSDYEIVRLQLWDIAGLERFAAMTRLYYRDASACVIMFDVTNATTFSNSQRWKQDLDSKLTLPNGEPVPCLLLANKCDLSPWAVSRDQIDRFSKENGFTGWTETSVKENKNINEAMRVLIEKMMRNS |
